Measurements as given in the RNAGym collection of RNA variant scans (doi:10.1073/pnas.2313332121).

B1: TPR t1 (parent)
chain: GACCAAUCUGCCCUCAGAGCUCGAGAACAUCUUCGGAUGCAGAGGAGGCAGGCUUCGGUGGCGCGAUAGCGCCAACGUCCUCAACCUCCAAUGCAUCCCACCACAUGAUGAUGCCUGAAGAGCCUUGGUUUUUUG

Variants of: B1
Test: polymerase ribozyme fitness, log enrichment relative to wild type (log ratio); higher = more active; in vitro selection for triplet polymerase activity
Outline: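 A single round of triplicate in vitro selection, including frozen incubation at −7 °C, was applied to PCR-built, transcribed mutant libraries of each subunit of a heterodimeric triplet polymerase ribozyme. Illumina sequencing of input and output libraries retained genotypes with ≥10 input reads and ≥1 read per output. Fitness is the base-2 logarithm of genotype enrichment divided by wild-type enrichment, from inverse-variance-weighted replicate averages.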

Row | Variant | polymerase ribozyme fitness (log ratio)
1 | A6U C20A G61U U125G | -2.23
2 | G35C G45U G61A A121G | -3.1
3 | G10A C28U A46U A83C A84C C124A | -2.98
4 | G10A G52C | -0.471
5 | U33A U59A G61U U106G | -5.96
6 | G10C U38A G63C U130G | -2.42
7 | C8A U130G U132A | -2.74
8 | C53U G110C | -3.51
9 | C8U A29U A37U U116C | -2.24
10 | A66U U125G | -1.48
11 | G19A G36U | -3.84
12 | U59G G110U G135U | -2.85
13 | G63A A83G A90G C98G A105C | -7.87
14 | C20A A91G U109G | -4.02
15 | U14G G113U | -5.7
16 | U9G G71U A84G C89G U112G | -7.39
17 | U112G U116A G117U A121G | 0.651
18 | C40A G71U | -1.52
19 | A29U U38G C88U | -3.31
20 | C4A C8A A37U C56A | -1.7
21 | C99U U134C | -4.03

Row | Variant | polymerase ribozyme fitness (log ratio)
22 | C8U U87A U112C G117U U130C | -0.73
23 | C11A U21C G52C A121C | 0.244
24 | G47U C53U A111G | -1.54
25 | C12A A46U G47C C124G | -0.295
26 | G48C A84G C85G C115A G127U | -4.98
27 | U55C C56U | 0.598
28 | C56U G69U G120U | -1.89
29 | C3U C13U C85U U87A A95C | -2.29
30 | U7A C15G C88U C124U | 0.702
31 | G10C G110C | -6.69
32 | C34U C123U | -2.86
33 | C8U A26G C49U G57C U112A | -0.963
34 | U32G C97G A119G | -6.08
35 | C3U G120A | 0.234
36 | C12U G52U C53G U78G | -0.0807
37 | A29U C40U C62A A83C | -3.08
38 | C11A A95G | -1.37
39 | A5U C12U | 0.00871
40 | A46U C72G | -1.4
41 | A26G G71A | -2.97
42 | A50G G71A | -1.41

Row | Variant | polymerase ribozyme fitness (log ratio)
43 | G39U C49A | -0.99
44 | C82U U87A | -0.441
45 | C53G U130A | -0.508
46 | C3U G69U A105G G117C | -4.98
47 | A26G G51U | -5.11
48 | C11G G52A C94A | 0.0249
49 | G52U G69A C94A C104U A118G | -5.65
50 | C12U C62G | -1.57
51 | C28A | -3.83
52 | A6C C8U C89U | -0.206
53 | C4G G45A C114U | -4.45
54 | C12U C101U | -0.102
55 | C8G C34A U55A C70G C104G G110A | -7.2
56 | A26U G42C | -6.73
57 | A18U G45U G63U G71C G110C C114G C124U | -7.92
58 | A46U C124A U131C | 1.32
59 | G63C C101U G127U | -1.08
60 | U9A C15A G39U C49A C56U A121U | 0.6
61 | C40U C49A G61U C82G U131G | -0.822
62 | C49A A91U A95G A100C | -6.08
63 | A16U C56A G117U | -3.11

Row | Variant | polymerase ribozyme fitness (log ratio)
64 | G52U C73U U129C | -1.39
65 | A37U C70U | -1.07
66 | C79A U81C C89U G93U G120C C124U | -3.62
67 | C12U A46C A75U | -0.187
68 | C40U C104A A119G | -1.84
69 | A6U G36C A37G A43G | -2.57
70 | A5G U9C C40U C56U U59A | -0.739
71 | A16G C62U | -1.57
72 | G71C A90G | -0.94
73 | G42A G44U C73G U112A G122A | -3.21
74 | G19C C86G A121G | -0.947
75 | C8G A50G G63A U112A G122A | -1.09
76 | C15G C73A C88G | -3.31
77 | A5U G71C C102G C114G C115G | -6.55
78 | U7G A18U C101U | -1.59
79 | U54G A84C | -0.587
80 | G57A C72U G127U | -2.52
81 | C73A C98A | -4.94
82 | G63U A103G | -5.82
83 | C56G G63U | -4.87
84 | A37U C86G C88U C104U U106A G113A C124G G127A | -4.82
